From US12099068B2, “Biomarkers for graft-versus-host disease” (Incyte Corporation, priority 2018, dated 2024)

B1: WAS (protein, UniProt P42768 2-502, looked up)
Actin nucleation-promoting …: SGGPMGGRPGGRGAPAVQQNIPSTLLQDHENQRLFEMLGRKCLTLATAVVQLYLALPPGAEHWTKEHCGAVCFVKDNPQKSYFIRLYGLQAGRLLWEQELYSQLVYSTPTPFFHTFAGDDCQAGLNFADEDEAQAFRALVQEKIQKRNQRQSGDRRQLPPPPTPANEERRGGLPPLPLHPGGDQGGPPVGPLSLGLATVDIQNPDITSSRYRGLPAPGPSPADKKRSGKKKISKADIGAPSGFKHVSHVGWDPQNGFDVNNLDPDLRSLFSRAGISEAQLTDAETSKLIYDFIEDQGGLEAVRQEMRRQEPLPPPPPPSRGGNQLPRPPIVGGNKGRSGPLPPVPLGIAPPPPTPRGPPPPGRGGPPPPPPPATGRSGPLPPPPPGAGGPPMPPPPPPPPPPPSSGNGPAPPPLPPALVPAGGLAPGGGRGALLDQIRQGIQLNKTPGAPESSALQPPPQSSEGLVGALMHVMQKRSRAIHSSDEGEDQAGDEDEDDEWDD
B2: SH2D1A (protein, UniProt O60880 1-128, looked up)
SH2 domain-containing protein …: MDAVAVYHGKISRETGEKLLLATGLDGSYLLRDSESVPGVYCLCVLYHGYIYTYRVSQTETGSWSAETAPGVHKRYFRKIKNLISAFQKPDQGIVIPLQYPVEKKSSARSTQGTTGIREDPDVCLKAP
B3: CCL25 (protein, UniProt O15444 24-150, looked up)
C-C motif chemokine 25: QGVFEDCCLAYHYPIGWAVLRRAWTYRIQEVSGSCNLPAAIFYLPKRHRKVCGNPKSREVQRAMKLLDARNKVFAKLHHNTQTFQAGPHAVKKLSSGNSKLSSSKFSNPISSSKRNVSLLISANSGL
B4: PAR-1 (protein, UniProt P25116 42-425, looked up)
Proteinase-activated receptor …: SFLLRNPNDKYEPFWEDEEKNESGLTEYRLVSINKSSPLQKQLPAFISEDASGYLTSSWLTLFVPSVYTGVFVVSLPLNIMAIVVFILKMKVKKPAVVYMLHLATADVLFVSVLPFKISYYFSGSDWQFGSELCRFVTAAFYCNMYASILLMTVISIDRFLAVVYPMQSLSWRTLGRASFTCLAIWALAIAGVVPLLLKEQTIQVPGLNITTCHDVLNETLLEGYYAYYFSAFSAVFFFVPLIISTVCYVSIIRCLSSSAVANRSKKSRALFLSAAVFCIFIICFGPTNVLLIAHYSFLSHTSTTEAAYFAYLLCVCVSSISCCIDPLIYYYASSECQRYVYSILCCKESSDPSSYNSSGQLMASKMDTCSSNLNNSIYKKLLT
B5: CD69 (protein, UniProt Q07108 1-199, looked up)
Early activation antigen CD69: MSSENCFVAENSSLHPESGQENDATSPHFSTRHEGSFQVPVLCAVMNVVFITILIIALIALSVGQYNCPGQYTFSMPSDSHVSSCSEDWVGYQRKCYFISTVKRSWTSAQNACSEHGATLAVIDSEKDMNFLKRYAGREEHWVGLKKEPGHPWKWSNGKEFNNWFNVTGSDKCVFLKNTEVSSMECEKNLYWICNKPYK
B6: COMT (protein, UniProt P21964 1-271, looked up)
Catechol O-methyltransferase: MPEAPPLLLAAVLLGLVLLVVLLLLLRHWGWGLCLIGWNEFILQPIHNLLMGDTKEQRILNHVLQHAEPGNAQSVLEAIDTYCEQKEWAMNVGDKKGKIVDAVIQEHQPSVLLELGAYCGYSAVRMARLLSPGARLITIEINPDCAAITQRMVDFAGVKDKVTLVVGASQDIIPQLKKKYDVDTLDMVFLDHWKDRYLPDTLLLEECGLLRKGTVLLADNVICPGAPDFLAHVRGSSCFECTHYQSFLEYREVVDGLEKAIYKGPGSEAGP
B7: RETN (protein, UniProt Q9HD89 19-108, looked up)
Resistin: KTLCSMEEAINERIQEVAGSLIFRAISSIGLECQSVTSRGDLATCPRGFAVTGCTCGSACGSWDVRAETTCHCQCAGMDWTGARCCRVQP
B8: RNASE3 (protein, UniProt P12724 28-160, looked up)
Eosinophil cationic protein: RPPQFTRAQWFAIQHISLNPPRCTIAMRAINNYRWRCKNQNTFLRTTFANVVNVCGNQSIRCPHNRTLNNCHRSRFRVPLLHCDLINPGAQNISNCTYADRPGRRFYVVACDNRDPRDSPRYPVVPVHLDTTI

System: plasma proteins
Assay: Plasma proteins modulated between baseline and day 28 in responders (CR, VGPR, PR; n = 19), Example 6 (Table 13)
Format: in vivo, human
Conditions: plasma protein (OLINK NPX); responders (CR, VGPR, PR; n = 19); itacitinib 200 mg or 300 mg QD with corticosteroids; day 28 vs baseline
In short: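 Longitudinal comparison, day 28 versus baseline, with steroid-naive (N=10) and steroid-refractory (N=18) patients combined. Proteins measured by OLINK proximity extension, log2 normalized protein expression. Differences tested by t tests, ANOVA, Pearson correlation, P<0.05 significant.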

| Molecule | Fold Change, Decreased Expression from Baseline to Day 28 | Fold Change, Increased Expression from Baseline to Day 28 |
| --- | --- | --- |
| B1 | −2.133 |  |
| B2 | −1.1574 |  |
| B3 |  | 2.106 |
| B4 | −1.2074 |  |
| B5 | −1.7621 |  |
| B6 | −1.4304 |  |
| B7 | −1.8687 |  |
| B8 | −2.6612 |  |
